Results reported in patent publication US20240277823A1 (published 2024).

Legend:
[1] = molecular target: 6A5; assay: BLI; 500 nM antigen
[2] = molecular target: 5G10; assay: BLI; 500 nM antigen

B1: LA0591 (other)
chain: VNPDQYCPASKKENHNIRIKRTLPPDFQLTEEWLRRLYDIATSASLTEGQIHGICGVCLLQTFQMLAELQEYHSHGPLQGGGYFFNTAPDTDPFDSFRQRYPELDTMLTDAATAYGPAYNTTRLLTLVSAMTMMPQYEWTPSREFTTRSDMHSHIRSLIDSPPGSIWLGLMQRRESDETLRWHALPILRTSQGLIVIQTRVSTMSFELYRLYLTPSTSIVQIINDYLEEADRTLTVLVTIQLEQAYQNLFDFMVSNMNCTGEGENRRGSGGYPTSATVNQCSGGRCALPNW
[1]
  Kd: < 1 pM
[2]
  Kd: < 1 pM
